Assays:
[1] = biological target: cynomolgus BCMA (cyno-BCMA), as used in SPR (cynomolgus monkey); test: SPR
[2] = biological target: BCMA on the BCMA+ cell lines (NCI-H929, L363, JJN-3, RPMI-8226, HEK293T-huBCMA, HEK293T-cynoBCMA); test: flow cytometry on BCMA+ cell lines

cynomolgus BCMA (cyno-BCMA), as used in SPR (cynomolgus monkey), sequence (chain, as listed by the source): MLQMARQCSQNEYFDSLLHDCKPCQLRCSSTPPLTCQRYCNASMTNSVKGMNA

fold higher affinity than to rodent BCMA [1]: 10 fold
EC50 [2]: 3.4 to 15.2 nM
Substance: CC-93269, bispecific trivalent anti-BCMA/anti-CD3 T cell engaging antibody (TCE) (bispecific antibody)

Reference: patent WO2020219978A1
